Laboratory results: publication PMC4960544, “Production of full-length soluble Plasmodium falciparum RH5 protein vaccine using a Drosophila melanogaster Schneider 2 stable cell line system” (Scientific Reports, 2016)
Numbering of substitutions follows the chain as printed.

How the values were obtained:
[1] = molecular target: T1, PfRH5 protein variant version 1.0 (7G8 sequence, four N-linked glycosylation sequons mutated Thr to Ala) (Plasmodium falciparum (7G8 …, UniProt Q8IFM5 26-526, C203Y | Thr to Ala in the sequon starting at N38 (position 40 worked out) | Thr …)); test: SPR; basigin immobilised on a CM5 chip by amine coupling (850 RU); PfRH5 variant injected at 8-0.0625 uM, 120 s at 30 uL/min, 300 s dissociation; 20 C; 10 mM HEPES pH 7.4, 150 mM NaCl, 3 mM EDTA, 0.005% Tween-20, 2 mg/mL dextran, 1 mg/mL salmon sperm DNA; blank surface subtracted; global 1:1 interaction model; settings: both partners purified
T1 construct: The construct has an N-terminal 18-residue BiP insect signal peptide (…) in place of the native one; No cleavage site for the His6 tag is described; also called PfRH5 v1.0; v1.0
T1 sequence: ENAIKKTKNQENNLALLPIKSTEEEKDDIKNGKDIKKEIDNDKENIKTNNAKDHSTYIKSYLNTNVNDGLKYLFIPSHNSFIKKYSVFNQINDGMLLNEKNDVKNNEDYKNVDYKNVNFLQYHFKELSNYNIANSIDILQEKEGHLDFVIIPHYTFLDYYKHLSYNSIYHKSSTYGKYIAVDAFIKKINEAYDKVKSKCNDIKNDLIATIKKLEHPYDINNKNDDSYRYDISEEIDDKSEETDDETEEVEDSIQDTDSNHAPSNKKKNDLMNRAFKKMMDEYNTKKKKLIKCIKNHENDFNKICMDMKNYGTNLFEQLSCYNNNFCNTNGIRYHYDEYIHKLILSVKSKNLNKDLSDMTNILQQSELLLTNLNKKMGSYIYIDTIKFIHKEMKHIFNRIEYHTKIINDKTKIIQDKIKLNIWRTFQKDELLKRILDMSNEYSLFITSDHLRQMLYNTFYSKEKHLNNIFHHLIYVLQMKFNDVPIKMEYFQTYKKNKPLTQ

[2] = molecular target: T2, PfRH5 protein variant version 3.0 (3D7 sequence, four putative N-linked glycosylation sites mutated Asn to … (Plasmodium falciparum (3D7 clone), UniProt Q8IFM5 26-526, N38Q | N214Q | Asn to Gln at N284 | Asn to Gln at N297)); test: as above; settings: both partners purified
T2 construct: the four putative N-linked glycosylation sites (N38, N214, N284, N297) mutated Asn to Gln; The construct has an N-terminal BiP insect signal peptide (…); No cleavage site for the His6 tag is described; also called PfRH5 v3.0; v3.0
T2 sequence: T1 sequence with N13Q, A15T, Y178C, N189Q, A191T, N259Q, A261T, N272Q, A274T

B1: recombinant basigin, immunoglobulin domains 1 and 2 of the short isoform (22-205) (domain or fragment)
chain: GAAGTVFTTVEDLGSKILLTCSLNDSATEVTGHRWLKGGVVLKEDALPGQKTEFKVDSDDQWGEYSCVFLPEPMGTANIQLHGPPRVKAVKSSEHINEGETAMLVCKSESVPPVTDWAWYKITDSEDKALMNGSESRFFVSSSQGRSELHIENLNMEADPGQYRCNGTSSKGSDQAIITLRVRSH
notes: additional glycine left at the N-terminus from the TEV cleavage site; basigin (CD147), immunoglobulin domains 1 and 2 of the short isoform, residues 22-205; numbers count on: the short isoform; basigin is spoken of as the red blood cell receptor of the human malaria parasite; also called CD147; PfRH5 receptor; not shown: His6, N-terminal, cleaved
binding result [1]: binds | binding result [2]: binds
